This experiment has as its target T1, human IL6 (human, UniProt P05231 30-212, biotinylated in the ELISA (bio-IL6); site not given).
T1 construct: In the ELISA it was biotinylated and captured on a neutravidin-coated plate; In Biacore it was on a CM5 sensor chip; also called bio-IL6; biotinylated human IL6
The experiment can be described thus: SPR, Biacore 3000, human IL6 on CM5 chip, Nanobody 3.75 nM to 2 uM. The protocol: Binding of VH4 Nanobodies to different antigens was evaluated by surface plasmon resonance on a Biacore 3000 instrument. […]
On the technique in general: SPR reads the build-up and loss of mass on a sensor chip optically.

B1: VH4 16.1 (VHH)
VHH: QVQLQESGPGLVKPSQTLSLTCTVSGGSITTYRYYWSWIRQPPGKGLEWMGAIAYSGSTYYSPSLKSRTSISRDTTKNQFTLQLSSVTPEDTAVYYCARGRLGSWYYELNEYDYWGQGTQVTVSS
notes: The two are tied only by the clone number; Llama VH4-class Nanobody, purified by IMAC as a His6-tagged protein; also called anti-IL6 VH4 Nanobody 16.1; VH4 cl16; not shown: His6 tag from vector pAX51
In the case of B1, the Kd (commonly the constant that tells how readily two partners part at equilibrium) came out at 19 nM, the koff (usually the first-order rate constant of dissociation) came out at 0.00036 s⁻¹ and the kon (commonly the second-order rate constant of association) stood at 19000 M⁻¹ s⁻¹.

B2: VH4 20.1 (VHH)
VHH: QVQLQESGPGLVKPSQTLSLTCTVSGGSITTYNYAWSWIRQPPGKGLEWMGVIAYDGSTYYSPSLKSRTSISRDTSKNQFSLQLSSVTPEDTAVYYCARGTVGSWYDEFPPRYDYWGQGTQVTVSS
notes: The two are tied only by the clone number; also called anti-IL6 VH4 Nanobody 20.1; VH4 Nanobody 20.1; not shown: His6 tag from vector pAX51
Molecule B2 displayed a Kd of 46 nM, a koff of 0.0018 s⁻¹ and a kon of 40000 M⁻¹ s⁻¹.

The record behind these values is patent US20090286727A1 (Ablynx, published 2009).
